Measurements taken from patent US20230143604A1, “QW DOSING OF GIP RECEPTOR AGONIST PEPTIDE COMPOUNDS AND USES THEREOF” (TAKEDA PHARMACEUTICAL COMPANY LIMITED, priority 2020, published 2023).
Starred links: 1 amine or outer side, 2 acyl side, 3 side chain; linkers in the order of their positions; H or OH if unused. Non-standard residues stand in square brackets, D forms with d. Groups on a side chain read outwards from the residue. No end group written: not given here. *: point of attachment. C18 diacid = O=C(O)CCCCCCCCCCCCCCCCC(=O)*; C17 diacid = O=C(O)CCCCCCCCCCCCCCCC(=O)*; γGlu = O=C(O)[C@H](CCC(=O)[*:2])N[*:1]; NMeY = CN[C@@H](Cc1ccc(O)cc1)C(=O)O; AEEA = NCCOCCOCC(=O)O; E∗ = not defined here; K∗ = not defined here; Aib = CC(C)(N)C(=O)O

B1: Compound No. 169 (peptide)
peptide: H-Y[Aib]EGTFISDYSI[Aib]LDKAK([AEEA-AEEA-γGlu-C18 diacid])QQDFVEWLLAQRG-OH
SMILES: CC[C@H](C)[C@H](NC(=O)[C@H](Cc1ccccc1)NC(=O)[C@@H](NC(=O)CNC(=O)[C@H](CCC(=O)O)NC(=O)C(C)(C)NC(=O)[C@@H](N)Cc1ccc(O)cc1)[C@@H](C)O)C(=O)N[C@@H](CO)C(=O)N[C@@H](CC(=O)O)C(=O)N[C@@H](Cc1ccc(O)cc1)C(=O)N[C@@H](CO)C(=O)N[C@H](C(=O)NC(C)(C)C(=O)N[C@@H](CC(C)C)C(=O)N[C@@H](CC(=O)O)C(=O)N[C@@H](CCCCN)C(=O)N[C@@H](C)C(=O)N[C@@H](CCCCNC(=O)COCCOCCNC(=O)COCCOCCNC(=O)CC[C@H](NC(=O)CCCCCCCCCCCCCCCCC(=O)O)C(=O)O)C(=O)N[C@@H](CCC(N)=O)C(=O)N[C@@H](CCC(N)=O)C(=O)N[C@@H](CC(=O)O)C(=O)N[C@@H](Cc1ccccc1)C(=O)N[C@H](C(=O)N[C@@H](CCC(=O)O)C(=O)N[C@@H](Cc1c[nH]c2ccccc12)C(=O)N[C@@H](CC(C)C)C(=O)N[C@@H](CC(C)C)C(=O)N[C@@H](C)C(=O)N[C@@H](CCC(N)=O)C(=O)N[C@@H](CCCNC(=N)N)C(=O)NCC(=O)O)C(C)C)[C@@H](C)CC
B2: Compound No. 170 (peptide)
peptide: H-Y[Aib]EGTFISDYSI[Aib]LDKAK([AEEA-AEEA-γGlu-C18 diacid])QQDFVNWLLAQRG-OH
SMILES: CC[C@H](C)[C@H](NC(=O)[C@H](Cc1ccccc1)NC(=O)[C@@H](NC(=O)CNC(=O)[C@H](CCC(=O)O)NC(=O)C(C)(C)NC(=O)[C@@H](N)Cc1ccc(O)cc1)[C@@H](C)O)C(=O)N[C@@H](CO)C(=O)N[C@@H](CC(=O)O)C(=O)N[C@@H](Cc1ccc(O)cc1)C(=O)N[C@@H](CO)C(=O)N[C@H](C(=O)NC(C)(C)C(=O)N[C@@H](CC(C)C)C(=O)N[C@@H](CC(=O)O)C(=O)N[C@@H](CCCCN)C(=O)N[C@@H](C)C(=O)N[C@@H](CCCCNC(=O)COCCOCCNC(=O)COCCOCCNC(=O)CC[C@H](NC(=O)CCCCCCCCCCCCCCCCC(=O)O)C(=O)O)C(=O)N[C@@H](CCC(N)=O)C(=O)N[C@@H](CCC(N)=O)C(=O)N[C@@H](CC(=O)O)C(=O)N[C@@H](Cc1ccccc1)C(=O)N[C@H](C(=O)N[C@@H](CC(N)=O)C(=O)N[C@@H](Cc1c[nH]c2ccccc12)C(=O)N[C@@H](CC(C)C)C(=O)N[C@@H](CC(C)C)C(=O)N[C@@H](C)C(=O)N[C@@H](CCC(N)=O)C(=O)N[C@@H](CCCNC(=N)N)C(=O)NCC(=O)O)C(C)C)[C@@H](C)CC
B3: Compound No. 171 (peptide)
peptide: H-Y[Aib]EGTFISDYSI[Aib]LDKAK([AEEA-AEEA-γGlu-C18 diacid])QADFVNWLLAQRG-OH
SMILES: CC[C@H](C)[C@H](NC(=O)[C@H](Cc1ccccc1)NC(=O)[C@@H](NC(=O)CNC(=O)[C@H](CCC(=O)O)NC(=O)C(C)(C)NC(=O)[C@@H](N)Cc1ccc(O)cc1)[C@@H](C)O)C(=O)N[C@@H](CO)C(=O)N[C@@H](CC(=O)O)C(=O)N[C@@H](Cc1ccc(O)cc1)C(=O)N[C@@H](CO)C(=O)N[C@H](C(=O)NC(C)(C)C(=O)N[C@@H](CC(C)C)C(=O)N[C@@H](CC(=O)O)C(=O)N[C@@H](CCCCN)C(=O)N[C@@H](C)C(=O)N[C@@H](CCCCNC(=O)COCCOCCNC(=O)COCCOCCNC(=O)CC[C@H](NC(=O)CCCCCCCCCCCCCCCCC(=O)O)C(=O)O)C(=O)N[C@@H](CCC(N)=O)C(=O)N[C@@H](C)C(=O)N[C@@H](CC(=O)O)C(=O)N[C@@H](Cc1ccccc1)C(=O)N[C@H](C(=O)N[C@@H](CC(N)=O)C(=O)N[C@@H](Cc1c[nH]c2ccccc12)C(=O)N[C@@H](CC(C)C)C(=O)N[C@@H](CC(C)C)C(=O)N[C@@H](C)C(=O)N[C@@H](CCC(N)=O)C(=O)N[C@@H](CCCNC(=N)N)C(=O)NCC(=O)O)C(C)C)[C@@H](C)CC
B4: Compound No. 182 (peptide)
peptide: Me-Y[Aib]EGTFISDYSIALDR[Aib]HQ[E∗]NF[K∗]NWLLAQK([AEEA-AEEA-γGlu-C18 diacid])PSSGAPPPS-NH2
modifications: not fully specified (residue 1); reading uncertain; also: E* at 20 and K* at 23 marked, meaning not given here
B5: Compound No. 183 (peptide)
peptide: Me-Y[Aib]EGTFISDYSIALDR[E∗]HQ[K∗]NFVNWLLAQK([AEEA-AEEA-γGlu-C18 diacid])PSSGAPPPS-NH2
modifications: not fully specified (residue 1); reading uncertain; also: E* at 17 and K* at 20 marked, meaning not given here
B6: Compound No. 185 (peptide)
peptide: YXEGTFISDYSIALDRXHQXNFVNELLKQXPSSGAPPPS
modifications: N-terminal Me (Me-Tyr 1); Aib at 2, 17, 20; E* at 25 and K* at 28 (mark * as printed, not explained); Km at 30 = Lys(2OEGgE-C18DA); C-terminus NH2

Experiments:
[1] = target: T1, full-length human GIPR with an N-terminal FLAG tag, overexpressed on HEK-293T cells (human, UniProt P48546 22-466); assay: cell-based or functional assay
T1 sequence (looked up): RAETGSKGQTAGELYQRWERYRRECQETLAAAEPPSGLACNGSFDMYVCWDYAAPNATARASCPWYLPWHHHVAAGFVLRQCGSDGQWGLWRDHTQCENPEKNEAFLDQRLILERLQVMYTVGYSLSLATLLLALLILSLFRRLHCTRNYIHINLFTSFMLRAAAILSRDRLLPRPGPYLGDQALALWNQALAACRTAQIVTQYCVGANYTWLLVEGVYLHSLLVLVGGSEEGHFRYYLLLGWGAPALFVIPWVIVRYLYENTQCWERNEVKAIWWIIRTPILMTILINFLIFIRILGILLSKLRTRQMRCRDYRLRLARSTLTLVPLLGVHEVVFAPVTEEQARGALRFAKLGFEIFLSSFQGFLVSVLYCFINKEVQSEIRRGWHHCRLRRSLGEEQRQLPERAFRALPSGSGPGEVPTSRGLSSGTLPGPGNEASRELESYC

[2] = target: full-length human GLP-1R with an N-terminal FLAG tag, overexpressed on HEK-293T cells (human, UniProt P43220 24-463); assay: cell-based or functional assay

Row | Binder | Human GIPR cAMP EC50, HEK293T [1] [nM] | Human GLP1R cAMP EC50, HEK293T [2] [nM]
1 | B1 | 0.0008 | 178
2 | B2 | 0.0005 | 61.7
3 | B3 | 0.0006 | 83.2
4 | Me-Y[Aib]EGTFISDYSIALDKIAQ[Aib]K([AEEA-AEEA-γGlu-γGlu-C18 diacid])FVEWLLAQRG-OH [Compound No. 173] | 0.0003 | 105
5 | Me-Y[Aib]EGTFISDYSIALDKAAQ[Aib]K([AEEA-AEEA-γGlu-γGlu-C18 diacid])FVEWLLAQRG-OH [Compound No. 174] | 0.0004 | 47.9
6 | Me-Y[Aib]EGTFISDYSIALDKIAQ[Aib]K([AEEA-AEEA-γGlu-γGlu-C18 diacid])FVNWLLAQRG-OH [Compound No. 175] | 0.0007 | 58.9
7 | Me-Y[Aib]EGTFISDYSIALDKAAQ[Aib]K([AEEA-AEEA-γGlu-γGlu-C18 diacid])FVNWLLAQRG-OH [Compound No. 176] | 0.0003 | 40.7
8 | Me-Y[Aib]EGTFISDYSIALDRIAQQK([AEEA-AEEA-γGlu-γGlu-C18 diacid])FVNWLLAQSPSSGAPPPS-OH [Compound No. 177] | 0.0003 | 100
9 | Me-Y[Aib]EGTFISDYSIALDRAAQQK([AEEA-AEEA-γGlu-γGlu-C18 diacid])FVNWLLAQSPG-OH [Compound No. 178] | 0.0006 | 186
10 | YXEGTFISDYSIAXDRIAQRNFVEWLLAQSPSSGAPPPS (N-terminal Me (Me-Tyr 1); Aib at 2; Km at 14 = Lys(G5-C18DA); C-terminus OH) [Compound No. 179] | 0.0008 | 2.88
11 | YXEGTFISDYSIAXDRIAQRNFVEWLLAQSPG (N-terminal Me (Me-Tyr 1); Aib at 2; Km at 14 = Lys(G5-C18DA); C-terminus OH) [Compound No. 180] | 0.0009 | 5.75
12 | B4 | 0.0525 | 214
13 | B5 | 0.0007 | 162
14 | B6 | 0.001 | 1000
15 | [NMeY][Aib]EGTFISDYSIALDR[Aib]HQ[Aib]NFVNWK([AEEA-AEEA-γGlu-C18 diacid])LAQR-NH2 [Compound No. 186] | 0.0003 | 1000
16 | Y[Aib]EGTFISDYSIAK([AEEA-AEEA-γGlu-C18 diacid])DKIHQQDFVNWLLAQKGKKNDWKHNITQ-OH [Compound No. 187] | 0.0032 | 562
17 | Y[Aib]EGTFISDYSIAMDKK([AEEA-AEEA-γGlu-C18 diacid])HQQDFVNWLLAQKGKKNDWKHNITQ-OH [Compound No. 188] | 0.0019 | 132
18 | [NMeY][Aib]EGTFISDYSIALDRIHQQNFVNWLLAQK([AEEA-AEEA-γGlu-C18 diacid])PSSGAPPPS-NH2 [Compound No. 190] | 0.0005 | 97.7
19 | [NMeY][Aib]EGTFISDYSIALDR[Aib]HQQNFVNWLLAQK([AEEA-AEEA-γGlu-C18 diacid]) [Compound No. 191] | 0.0032 | 97.7
20 | [NMeY][Aib]EGTFISDYSIAK([AEEA-AEEA-γGlu-γGlu-C17 diacid])DR[Aib]AQ[Aib]NFVNWLLAQS-OH [Compound No. 192] | 0.0002 | 178
21 | [NMeY][Aib]EGTFISDYSIALDR[Aib]AQ[Aib]K([AEEA-AEEA-γGlu-γGlu-C17 diacid])FVNWLLAQKG-OH [Compound No. 200] | 0.0006 | 77.6
22 | [NMeY][Aib]EGTFISDYSI[Aib]LDR[Aib]HQ[Aib]K([AEEA-AEEA-γGlu-γGlu-C18 diacid])FVNWLLAQRG-OH [Compound No. 201] | 0.0009 | 61.7
